Earlier results as cited in paper PMC10605242.

How the values were obtained:
C4b (Homo sapiens) = C4b (Homo sapiens) (UniProt P0C0L4)
[1] = biological target: C4b dimer (B isoform) (Homo sapiens) (UniProt P0C0L5)
[2] = biological target: C4b dimer (A isoform) (Homo sapiens) (UniProt P0C0L4)

Row | Substance | Kd (C4b (Homo sapiens)) [µM] | Kd [1] [µM] | Kd [2] [µM]
1 | CR1 SCR15-18 (from UniProt P17927) | 1.2 |  | 
2 | CR1 (from UniProt P17927) |  | 0.445 | 0.13
